The results in this text go back to the nanobody polyreactivity screen of Harvey et al. (2022).

This series in a line: yeast display, Sf9 membrane polyspecificity reagent, FACS + sequencing; frameworks hold sequencing errors. In short, it runs like this: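 Genes from sorted yeast were amplified by colony PCR, read by MiSeq 2 × 250 sequencing and filtered on CDR length. These cells carried a synthetic nanobody library in Saccharomyces cerevisiae BJ5465 and were sorted by FACS into low and high (top ~1%) gates on anti-HA and streptavidin fluorescence. Polyreactivity is labelled according to the gate of origin.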
For “QVQLVESGGGLVQAGGSLRLSCAASGSNLYPYAMGWYRQAPGKERELVAAISRGGSTNYADSVKGRYTIARDNAKNTVYLQMNSLKPDDTAVYYCATAYTRFSQRYEYYVIYWQNDYWGQGTQVTVSS”, the “polyreactivity (PSR sort gate)” value is listed as “low polyreactivity”.

On to “QVQLVESGGGLVQAGGSLRLSCAASGSNSVYNAMGWYRQAPGKERELVAAISWSGGRTSYADSVKGRFTISRDNAKNTVYLQMNSLKPEDTAVYYCAADELTVLWDEDYWGQGTQVTVSS”, for which the “polyreactivity (PSR sort gate)” value was “low polyreactivity”.

For “QVQLVESGGGLVQAGGSLRLSCAASGSNYTYYAMGWYRQAPGKERQLVAAIRSSGSTYYADSVKGRFTISRDNAKNTVYLQMNSLKPEDTAVYYCAAKARRLNASSYDYWGQGTQVTVSS”, the “polyreactivity (PSR sort gate)” value is “high polyreactivity”.

As to “QVQLVESGGGLVQAGGSLRLSCAASGSPFFVYAMGWYRQAPGTERELVAAISSRGSTYYADSVKGRFTIARDTAKNTVYLQMNSLKPEDTAVYYCAAEYTVSYLRMDYWGQGTQVTVSS”, the “polyreactivity (PSR sort gate)” value is reported as “low polyreactivity”.

As to “QVQLVESGGGLVQAGGSLRLSCAASGSPFRGNAMGWYRQAPGKEREFVAAITVSCGSTYYADSVKGRFTISRDNAKNNVYLQMKSLNPEDTAVYYCAARYLRYSSKTIQNEDYWGQGTQVTVSS”, the “polyreactivity (PSR sort gate)” value was “high polyreactivity”.

Regarding “QVQLVESGGGLVQAGGSLRLSCAASGSPFYGYGMGWYRQAPVKERELVAASTRSGGSTYYADSVKGRFTRSRDNAKNTVYVQKNSLKPEDTEVYYCNKSGYKGGVGYDYWGQGTQVTVSS”, the “polyreactivity (PSR sort gate)” value is on record as “high polyreactivity”.

For the sequence “QVQLVESGGGLVQAGGSLRLSCAASGSRYSRNAMGWYRQAPGKERELVAASSYSSGSTYYADSVKGRFTISLDNAKNTVYLQMNSLIPEDTAVYYCAADTTKLQGVEGDYWGQGTQVTVSS”, the “polyreactivity (PSR sort gate)” value is “low polyreactivity”.

Take “QVQLVESGGGLVQAGGSLRLSCAASGSSFYDNAMGWYRQAPGKERELVAGIRSTGRTYYADSVKGRFTISRDNAKNTVYLQMNSLKPEDTAVYYCAAYVGTYGEYDYWGQGTQVTVSS”: the “polyreactivity (PSR sort gate)” value was “low polyreactivity”.

For the sequence “QVQLVESGGGLVQAGGSLRLSCAASGSSFYDYAMVWYRQAPGKERELVAAINGNGDSTYYADSVKGRFTISRDNAKYTVYLQMNSLKPEDNAVYYCAAYLGWGYDYWGQGTQVTVSS”, the “polyreactivity (PSR sort gate)” value is recorded as “low polyreactivity”.

As for “QVQLVESGGGLVQAGGSLRLSCAASGSSFYSNAMGWYRQAPGKERELVAAISSSGGSTYYADSVKGRFTISRDNAKNTVYLQMNSLKPEDTAVYYCAAYSYYPPYDYWGQGTQVTVSS”, the “polyreactivity (PSR sort gate)” value is reported as “high polyreactivity”.

On to “QVQLVESGGGLVQAGGSLRLSCAASGSSGYFYALGWSRPAPGKERELVADMDWSGDSTYYADSVKGRFTISRDNAKTTVYLQMNSLKPEDTAVYYCNAAYDYYSPSYTYDYWGQGTQVTVSS”, for which the “polyreactivity (PSR sort gate)” value is recorded as “low polyreactivity”.

For “QVQLVESGGGLVQAGGSLRLSCAASGSSTLMLMGWYRQAPGKERELVAVITSSGGRTYYADSVKGRFTISRDNAKNTVYLQMNSLKPEDTAVYYCNVDIGVYAYESDYWGQGTQVTVSS”, the “polyreactivity (PSR sort gate)” value is on record as “low polyreactivity”.

For “QVQLVESGGGLVQAGGSLRLSCAASGSTCRGYAMGWYRQAPGKEREFVAAISRRGGTTYYADSVKGRFTISRDNAKNTVYLQMNSLKQEDTAVYYCNKVYYQHYLAFDYWGQGTQVTVSS”, the “polyreactivity (PSR sort gate)” value was “high polyreactivity”.

“QVQLVESGGGLVQAGGSLRLSCAASGSTFAANAMGWSRPAPGKERELVAAITSSGGSTYYADSVKGRFTISRDYAKNTVYLQMNSLKPEDTAVYYCNKDIERYVRIYDSWGQGTQVTVSS”: the “polyreactivity (PSR sort gate)” value was “low polyreactivity”.

Consider “QVQLVESGGGLVQAGGSLRLSCAASGSTFACNAMGWDRQAPGKERELVAAISWSGGSTYYADSVKGRFTISRDNAKNTVYLQMNSLKPEDTAVYYCAARRYASRTGYLYDFWGQGTQVTVSS”, for which the “polyreactivity (PSR sort gate)” value is given as “high polyreactivity”.

In the case of “QVQLVESGGGLVQAGGSLRLSCAASGSTFADNAMGWYSQARGKAGEFVAGISTNGGSTYYADSVKGRFTISRDNAKNTVYLQMNSLKPEDTAVYYCSAVNYYDQYGDYYWGQGTQVTVSS”, the “polyreactivity (PSR sort gate)” value was “low polyreactivity”.

With “QVQLVESGGGLVQAGGSLRLSCAASGSTFADYAMGWYRQAPGKERELVAAITQSGGSTSYADSVKGRFTISRDNAKNTVYLQMNSLKPEDTAVYYCNVDDSTWIGAYRRYDYWGQGTQVTVSS”, the “polyreactivity (PSR sort gate)” value was “low polyreactivity”.

Regarding “QVQLVESGGGLVQAGGSLRLSCAASGSTFADYAMGWYRQAPGKERELVAAITSSGGSTYYADSVKGRFTISRDNAKYTVYLQMKSLKAAETAGYYCNARVPRLLFVRFYGMDYWGQGNQVTVSS”, the “polyreactivity (PSR sort gate)” value is “low polyreactivity”.

As for “QVQLVESGGGLVQAGGSLRLSCAASGSTFAFYDMGWYRQAPGKERELVAIIDWSGGRTYYADSVKGRFTISRDNAKNTVYLQMNSLKPEDTAVYYCNAENTYLGSRYRPYNYWGQGTQVTVSS”, the “polyreactivity (PSR sort gate)” value is recorded as “low polyreactivity”.

Consider “QVQLVESGGGLVQAGGSLRLSCAASGSTFAGNAIGWYRQAPGKERELVAAIDSSTGSTYYADSVKGRFTISRDNAKNTVFLQMNSLKPEDTAVYYCNKTSFLVNLDYWGQGTQVTVSS”, for which the “polyreactivity (PSR sort gate)” value was “low polyreactivity”.

Regarding “QVQLVESGGGLVQAGGSLRLSCAASGSTFAGNAMGWYRQAPGKERELVAAIDSSTGSTYYADSVKGRFTISRDNAKNTVYLQMNSLKPEDTAVYYCNNTSFLVKLDYWGQGTQVTVSS”, the “polyreactivity (PSR sort gate)” value is “low polyreactivity”.

Regarding “QVQLVESGGGLVQAGGSLRLSCAASGSTFAGNAMGWYRQAPGKERELVAAIDSSTGSTYYADSVKGRFTISRDNAKNTVYLQMNSLKPEDTAVYYSNAEIYPIVKAGRQHPRRYDYWGQGTQVTVSS”, the “polyreactivity (PSR sort gate)” value is listed as “low polyreactivity”.

With “QVQLVESGGGLVQAGGSLRLSCAASGSTFAGNAMGWYRQAPGKERELVAAISSSGAGTYYADSVKGRFTISRDNAKNTVYLQMNSLKPEDTAVYYCNVGSRALRRRVRSVSFDYWGQGTQVTVSS”, the “polyreactivity (PSR sort gate)” value was “low polyreactivity”.

As for “QVQLVESGGGLVQAGGSLRLSCAASGSTFAGNTMGWYRQAPGKERELVAAITWNGGRTRYADSVKGRFTISRDNAKNTVYLQMNSLKPEDTAVYYCNAGPWYENMDYWGQGTQVTVSS”, the “polyreactivity (PSR sort gate)” value is listed as “high polyreactivity”.

In the case of “QVQLVESGGGLVQAGGSLRLSCAASGSTFAGYALGWYRQAPGKERELVADITWSGGSTYYADSVKGRFTISRDNAKNTVYLQMNSLKPEDTAVYYCAAAGYYSDMDYWGQGTQVTVSS”, the “polyreactivity (PSR sort gate)” value was “low polyreactivity”.

For “QVQLVESGGGLVQAGGSLRLSCAASGSTFAGYVMGFYIQATGKERELVAAISGSGGSTYYADSVKGRFTISRDNAKKTVYLQMNSLKPEDTAVYYCAKRAIIKYRGGYGYWGQGTQVTVSS”, the “polyreactivity (PSR sort gate)” value was “high polyreactivity”.

“QVQLVESGGGLVQAGGSLRLSCAASGSTFAINAMGWYRQAPGKERELVAAISSSGSTNYADSVKGRFTISRDNAKNTVYLQMNSLKPEDTAVYYCAADQYWDGYDFLYDYWGQGTQVTVSS”: the “polyreactivity (PSR sort gate)” value was “low polyreactivity”.

As to “QVQLVESGGGLVQAGGSLRLSCAASGSTFAINAMGWYRQAPGKERELVAAMSSSGSTNYADSGNGRFTISRDNAKNTVYLQMNSLKPEDTAVYYCAADRVWGTPQAYVPSQFDYWGQGTQVTVSS”, the “polyreactivity (PSR sort gate)” value is “low polyreactivity”.

In the case of “QVQLVESGGGLVQAGGSLRLSCAASGSTFAIYAMGWYRQAPGKERELVAAINSGGSTNYADSVKGRFTISRDNAKNTVYLQMNSLKPEDTAVYYCNTDAWHETPVSGYSWGQGTQVTVSS”, the “polyreactivity (PSR sort gate)” value is listed as “low polyreactivity”.

For the sequence “QVQLVESGGGLVQAGGSLRLSCAASGSTFAIYAMGWYRQAPGKERELVAAITRGSTSYADSVKGRFTISRDNAKNTVYLQMYSLKPEDTAVYYCAADSSRYGVIRDFDYWGQGTQVTVSS”, the “polyreactivity (PSR sort gate)” value is “high polyreactivity”.

Take “QVQLVESGGGLVQAGGSLRLSCAASGSTFAKYVMGWYRQAPGKERELVAAISTRGTRTYYADSVKGRFTISRDTAKNTVYLQMNSLKPEDTAVYYCAVVTIISSRLGNYWGQGTQVTVSS”: the “polyreactivity (PSR sort gate)” value is “high polyreactivity”.

As to “QVQLVESGGGLVQAGGSLRLSCAASGSTFAPNAMGWYRQAPGKERELVAAISSGSSTYYADSVKGRFTISRDNAKNTVYLQMNSLKPEDTAVYYCARRVSWGYYYWGQGTQVTVSS”, the “polyreactivity (PSR sort gate)” value was “high polyreactivity”.

As to “QVQLVESGGGLVQAGGSLRLSCAASGSTFAPNAMGWYRQAPGKERELVAAISSGSSTYYADSVKGRFTISRDNAKNTVYLQMNSLKQEVNAVYYCAARSTYYSRKQLVDYWGQGTQVTVSS”, the “polyreactivity (PSR sort gate)” value is “high polyreactivity”.

In the case of “QVQLVESGGGLVQAGGSLRLSCAASGSTFAPNAMGWYRQAPGKERELVAVIDSGDGTTYYADSVKGRFTISRDNAKNTVYLQMNSLKPEDTAVYYCAVDESTSYYDDHEDYWGQGTQVTVSS”, the “polyreactivity (PSR sort gate)” value is “low polyreactivity”.

For “QVQLVESGGGLVQAGGSLRLSCAASGSTFAPYAMGWYRHAPGKERELVASIRSTGSTNYADSVKGRFTISRDNAKNTVYLQMNSLKPEDTAVYYCAARYRRYQYRVKVDYYYWGQGTQVTVSS”, the “polyreactivity (PSR sort gate)” value is reported as “high polyreactivity”.

Turning to “QVQLVESGGGLVQAGGSLRLSCAASGSTFAPYAMGWYRQAPGKERELVAVISSAGSTYYADSVKGRFTLSRDNAKNTDYLQRNSLKPEDTAVYYCAARAPSSISQSRGMYYWGQATQVTVSS”, the “polyreactivity (PSR sort gate)” value is reported as “high polyreactivity”.

Consider “QVQLVESGGGLVQAGGSLRLSCAASGSTFAQNAMGWYRQAPGKERELVAAISRRGGSTYYADSVKGRFTISRDNAKNTVYLQMNSLKPEDTAVYYCAADQPVRQHHRDDYWGQGTQVTVSS”, for which the “polyreactivity (PSR sort gate)” value is “low polyreactivity”.

In the case of “QVQLVESGGGLVQAGGSLRLSCAASGSTFAQNAMGWYRQAPGKERELVAAISRRGTITNYADSVKGRFTISRDNAKNTVYLQMNSLKPEDTAVYYCAKEGTWTGGSDNYWGQGTQVTVSS”, the “polyreactivity (PSR sort gate)” value was “high polyreactivity”.

Take “QVQLVESGGGLVQAGGSLRLSCAASGSTFAQNTMGSYRQAPGKERELVATISDGGGSTYYADSVKGRFTISRDNAKNTVYLQMNSLKPEDTAVYYCNTDRFWPSYYWGQGTQVTVSS”: the “polyreactivity (PSR sort gate)” value is given as “low polyreactivity”.

“QVQLVESGGGLVQAGGSLRLSCAASGSTFARNVMGWYRQAPGKERELVAAISWRGGRTYYADSVKGRFTISRDNAKNTVYLQMNSLKPEDTAVYYCNAVKRLKVTHSYEYGYWGQGTQVTVSS”: the “polyreactivity (PSR sort gate)” value is “high polyreactivity”.

On to “QVQLVESGGGLVQAGGSLRLSCAASGSTFARYAMGWSRQAPGKERELVAAISDSSGSTYYADSVKGRFTISRDNAKNTVYLQMNSLKPEDTAVYYCRYYFGSGYYYWGQGTLVTVSS”, for which the “polyreactivity (PSR sort gate)” value is “high polyreactivity”.
